Laboratory results: paper doi:10.1101/2024.08.25.607996

Tests used:
[1] = biological target: feline APN ectodomain without the Fc fusion (dimer) (feline) (UniProt P79171); experiment: cryo-EM structure
[2] = biological target: FCoV-23 S domain B (receptor-binding domain), residues 529-677, avi- and His-tagged (FCoV-23 (feline coronavirus)); experiment: BLI

Sequence of canine APN-Fc ectodomain (dimeric) (P79143 71-975): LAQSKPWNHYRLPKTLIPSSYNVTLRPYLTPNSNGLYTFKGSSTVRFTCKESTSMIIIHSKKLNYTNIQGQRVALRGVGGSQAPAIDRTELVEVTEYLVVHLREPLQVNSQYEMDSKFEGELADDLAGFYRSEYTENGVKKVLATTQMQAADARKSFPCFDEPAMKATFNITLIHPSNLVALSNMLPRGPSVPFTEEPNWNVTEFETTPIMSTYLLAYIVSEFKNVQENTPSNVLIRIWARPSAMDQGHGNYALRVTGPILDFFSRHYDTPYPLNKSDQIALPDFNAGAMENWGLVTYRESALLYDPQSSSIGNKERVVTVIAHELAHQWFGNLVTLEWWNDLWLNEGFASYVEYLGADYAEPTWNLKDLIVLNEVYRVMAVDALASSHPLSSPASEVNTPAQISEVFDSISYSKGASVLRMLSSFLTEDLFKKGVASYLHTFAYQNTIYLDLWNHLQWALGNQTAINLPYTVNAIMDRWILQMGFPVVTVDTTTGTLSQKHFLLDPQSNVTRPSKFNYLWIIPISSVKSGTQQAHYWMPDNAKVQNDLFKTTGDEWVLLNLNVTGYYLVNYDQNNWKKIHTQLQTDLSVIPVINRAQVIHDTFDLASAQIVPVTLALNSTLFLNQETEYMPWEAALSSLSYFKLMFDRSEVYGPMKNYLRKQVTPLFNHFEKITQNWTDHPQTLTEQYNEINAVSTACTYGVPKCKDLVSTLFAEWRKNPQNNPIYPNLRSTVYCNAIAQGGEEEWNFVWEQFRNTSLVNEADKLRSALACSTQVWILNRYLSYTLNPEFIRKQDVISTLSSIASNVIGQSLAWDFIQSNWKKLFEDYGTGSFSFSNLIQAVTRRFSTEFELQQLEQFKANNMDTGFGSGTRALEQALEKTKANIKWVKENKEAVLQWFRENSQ
Sequence of feline APN-Fc ectodomain (dimeric) (P79171 64-967): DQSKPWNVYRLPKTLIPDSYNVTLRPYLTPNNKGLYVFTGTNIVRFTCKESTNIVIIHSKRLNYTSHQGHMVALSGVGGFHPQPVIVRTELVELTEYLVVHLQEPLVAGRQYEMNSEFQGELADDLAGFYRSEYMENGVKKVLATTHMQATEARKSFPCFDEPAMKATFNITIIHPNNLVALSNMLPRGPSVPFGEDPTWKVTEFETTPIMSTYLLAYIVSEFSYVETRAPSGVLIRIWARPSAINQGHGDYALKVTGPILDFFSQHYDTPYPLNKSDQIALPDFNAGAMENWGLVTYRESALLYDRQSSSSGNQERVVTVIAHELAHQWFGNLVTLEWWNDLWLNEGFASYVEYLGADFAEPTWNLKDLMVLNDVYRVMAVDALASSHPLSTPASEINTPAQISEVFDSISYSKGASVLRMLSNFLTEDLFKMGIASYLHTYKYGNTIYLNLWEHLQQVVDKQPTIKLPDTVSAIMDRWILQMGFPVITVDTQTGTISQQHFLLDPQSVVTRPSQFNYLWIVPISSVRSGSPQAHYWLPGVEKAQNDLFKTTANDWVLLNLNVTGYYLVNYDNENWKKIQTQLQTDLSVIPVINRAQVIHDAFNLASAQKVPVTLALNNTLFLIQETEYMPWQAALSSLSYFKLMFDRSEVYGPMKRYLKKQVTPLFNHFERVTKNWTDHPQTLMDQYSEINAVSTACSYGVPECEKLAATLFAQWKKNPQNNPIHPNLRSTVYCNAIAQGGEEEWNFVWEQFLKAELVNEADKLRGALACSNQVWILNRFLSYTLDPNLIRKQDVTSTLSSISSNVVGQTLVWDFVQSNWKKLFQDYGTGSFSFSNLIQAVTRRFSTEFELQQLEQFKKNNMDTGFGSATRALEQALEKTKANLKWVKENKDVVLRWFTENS
Sequence of feline APN ectodomain without the Fc fusion (dimer) (feline) (P79171 64-967): as above

“FCoV-23 S domain B (receptor-binding domain), residues 529-677, avi- and His-tagged (domain or fragment)” showed a stoichiometry N (RBD per APN protomer) [1] of 1.

“canine APN-Fc ectodomain (dimeric) (from UniProt P79143 71-975) (Fc fusion)” was tested, and the Kd [2] was 1.3 nM.

“feline APN-Fc ectodomain (dimeric) (from UniProt P79171 64-967) (Fc fusion)” was tested, and the Kd [2] was 11 nM.
